Laboratory results taken from patent US20240279622A1, “COELENTERAZINE-UTILIZING LUCIFERASES WITH STABLE GLOW-TYPE LIGHT EMISSION AND METHODS OF PRODUCING AND USING THEREOF” (MASARYKOVA UNIVERZITA, priority 2021, published 2024).
Read-outs that look alike come from different tables or passages of the source.

Key:
[1] = Stopped-flow pre-steady-state kinetics of substrate binding (tryptophan fluorescence quenching); settings: 15° C.; for k+1: pH 7.5, induced-fit binding mechanism
Experimental: The measurement was performed at 15° C. in 100 mM potassium phosphate buffer pH 7.5. Rapid mixing of the components was achieved using the Stopped-Flow SFM 3000 combined with the MOS-500 spectrometer (BioLogic, France). The reaction was initiated by mixing 75 μL of an enzyme with 75 μL of coelenterazine and then monitored by the change of native tryptophan fluorescence (295 nm excitation, 340±13 nm emission). The fluorescence changes were caused by the quenching effect of the coelenterazine substrate upon its binding by an enzyme. The experiment was designed in two different modes, varying either the concentration of the coelenterazine substrate or the concentration of an enzyme. Each kinetic trace was measured in seven consecutive replicates and averaged. The concentration of coelenterazine in the final reaction mixture ranged from 0.9 to 90 μM while the concentration of luciferase enzymes ranged from 0.4 to 94 μM.
The collected double-exponential kinetic traces were fitted globally with the KinTek Explorer (KinTek Corporation, USA). The software allows for the input of a given kinetic model via a simple text description, and the program then derives the differential equations needed for numerical integration automatically. Numerical integration of rate equations searching a set of kinetic parameters that produce a minimum χ^2 value was performed using the Bulirsch-Stoer algorithm with adaptive step size, and nonlinear regression to fit data was based on the Levenberg-Marquardt method. Residuals were normalized by sigma values for each data point. The standard error was calculated from the covariance matrix during nonlinear regression. In addition to standard error values, more rigorous analysis of the variation of the kinetic parameters was accomplished by confidence contour analysis by using FitSpace Explorer (KinTek Corporation, USA). In these analyses, the lower and upper limits for each parameter were derived from the confidence contour obtained from setting the χ^2 threshold at 0.95.
The time-course of the fluorescence quenching upon substrate binding was described with Equation (7) according to the induced-fit binding mechanism and the mechanism was fit directly to the collected kinetic data to obtain the values of elementary rate constants describing the substrate binding process. The quality of the best fits was compared in terms of χ^2 values, “chi-by-eye” assessment, and confidence contour analysis assessing constraint and independency of the determined parameters which confirmed that the obtained values are well-defined by the collected kinetic data.

[2] = Thermal unfolding by NanoDSF (tryptophan fluorescence); format: physicochemical; settings: for Tm / Tonset: 100 mM potassium phosphate buffer pH 7.5, 1° C./min
Experimental: Thermal unfolding was studied using NanoDSF Prometheus (NanoTemper, Germany) by monitoring tryptophan fluorescence over the temperature range of 20 to 90° C., at a heating rate of 1° C./min. The melting temperatures (Tonset and Tm) were evaluated directly by ThermControl v2.0.2.

[3] = Luminescence specific activity of the ancestral protein; format: biochemical; settings: 7.9 μM coelenterazine, 37° C., compared to RLuc
Experimental: Both the coelenterazine substrate and the AncHLD-RLuc enzyme were dissolved in 100 mM potassium phosphate buffer pH 7.5 and their resulting concentrations in the reaction mixture were 7.9 μM coelenterazine, 1.5 nM RLuc, and 2.8 μM AncHLD-RLuc. Bioluminescence activity traces were collected at 37° C. over the first 72.5 seconds immediately after injection of the substrate into the enzyme solution. The activity of each enzyme sample was measured in at least three independent experiments. The collected luminescence curves were integrated to obtain a linear increase of cumulative luminescence over time, while the slope gave the final value of activity, represented in RLU·s^−1. For each enzyme, the calculated activity was related to one milligram of the enzyme to get the final value of specific activity in RLU·s^−1·mg^−1.

[4] = pH 7.5
Experimental: Solid coelenterazine was dissolved in ice-cold ethanol and stored under a nitrogen atmosphere in dark glass vials at −20° C. Before each measurement, the concentration and maintained quality of the ethanol stock solutions were verified spectrophotometrically. A buffer solution of coelenterazine was prepared by mixing an appropriate volume of the ethanol stock solution with 100 mM phosphate buffer pH 7.5 immediately before the measurement. Tested luciferase enzyme samples were dissolved in the same 100 mM phosphate buffer pH 7.5. The enzymatic reaction was initiated inside the microplate reader FLUOstar OPTIMA (BMG Labtech, Germany) by the automatic addition of 225 μL buffer solution of coelenterazine into a microplate well containing 25 μL of enzyme solution. The resulting bioluminescence activity traces were collected at 37° C. until the luminescence intensity decreased to less than 0.5% of its maximal measured value. Each luminescence trace was measured in 3 repetitions. The concentration of coelenterazine in the final reaction mixture was 2.2 μM while the concentration of luciferase enzymes was 50 nM. The obtained luminescence kinetic data were fitted to an exponential decay or a logistic model using Origin 6.1 (OriginLab, USA) and the value of half-life t1/2, defined as the time when the initial luminescence signal decreased to 50%, was calculated.

[5] = Anaerobic equilibrium binding of coelenterazine substrate (fluorescence)
Experimental: The experiments were performed under strictly anaerobic conditions to prevent enzymatic oxidation of interacting ligands. To do so, all the equipment and material, including water, buffer, pipettes, tips, syringes, microplates, and sealing, were made anaerobic by incubating them overnight in the anaerobic glovebox Belle MR2 (Belle Technology, UK). The box was filled with ultra-high purity (UHP) nitrogen atmosphere containing the residual oxygen concentration of 2.3 ppm, as determined by the oxygen meter O2M-3 (Belle Technology, UK). Liquids were aliquoted to the volume of maximally 50 mL and were stirred overnight in the box to release any dissolved oxygen. Two hours prior to the experiment, a closed bottle with an evacuated lyophilized enzyme (oxygen depleted) was put into the glovebox, dissolved with anaerobic water, and incubated to remove any remaining oxygen possibly dissolved in the solution. Similarly, the stock solution of coelenterazine or coelenteramide in ethanol, which was long-term stored in a freezer under the nitrogen atmosphere without oxygen, was put into the glovebox in a closed bottle. A small aliquot of coelenterazine/coelenteramide was transferred into a new empty bottle and kept open for about 20 minutes to remove the remaining dissolved oxygen. After the incubation, a few microliters of an enzyme were mixed with the same amount of coelenterazine, and the mixture was visually inspected for any possible bioluminescence. If no light was observed and the mixture remained yellow even after a minute, all the reagents were ready for anaerobic measurements.
(§1) In the anaerobic glovebox, 200 μL of a differently concentrated enzyme was put into a separate well in a microplate and into each of these wells, 5 μL of coelenterazine or coelenteramide stock solution was added. As a blank, 200 μL of the enzyme was mixed with 5 μL of ethanol for each enzyme concentration. […] The extent of coelenterazine binding at each concentration was determined by measuring fluorescence spectra ranging from 480 to 580 nm upon excitation at 420 nm using the microplate spectrophotometer Varioskan LUX (Thermo Scientific, USA). Binding of coelenteramide was monitored by measuring fluorescence spectra ranging from 350 to 700 nm upon excitation at 330 nm. […]
The obtained fluorescence spectra were visually inspected for characteristic peaks, and the value of the maximal fluorescence intensity Fluomax at these peaks was plotted against the enzyme concentration. The final value of the dissociation constant Kd was determined by fitting the dependence with the hyperbolic Equation (8) using the software Origin 6.1 (OriginLab, USA).

[6] = compared to RLuc; cited from earlier work
[7] = Anaerobic equilibrium binding of coelenteramide product (fluorescence); settings: pH 7.5, 30° C., read-out: Dissociation constant Kd, Coelenteramide product
Experimental: The experiments were performed under strictly anaerobic conditions to prevent enzymatic oxidation of interacting ligands. To do so, all the equipment and material, including water, buffer, pipettes, tips, syringes, microplates, and sealing, were made anaerobic by incubating them overnight in the anaerobic glovebox Belle MR2 (Belle Technology, UK). The box was filled with ultra-high purity (UHP) nitrogen atmosphere containing the residual oxygen concentration of 2.3 ppm, as determined by the oxygen meter O2M-3 (Belle Technology, UK). Liquids were aliquoted to the volume of maximally 50 mL and were stirred overnight in the box to release any dissolved oxygen. […] If no light was observed and the mixture remained yellow even after a minute, all the reagents were ready for anaerobic measurements.
as §1, with “added.” for “added. As a blank, 200 μL of the enzyme was mixed with 5 μL of ethanol for each enzyme concentration.”

[8] = Steady-state kinetic analysis of full-conversion cumulative luminescence curves; format: biochemical
Experimental: Each luminescence trace was measured in 3 repetitions. The concentration of coelenterazine in the final reaction mixture ranged from 0.2 to 7.9 μM while the concentration of luciferase enzymes ranged from 17 to 640 nM.
An updated protocol applying new standards for collecting and fitting steady-state kinetic data was used. Unlike the classical initial velocity analysis, which requires a sophisticated luminometer calibration and quantum yield evaluation, luminescence data were recorded when letting the reaction proceed to completion beyond the initial linear phase. The recorded luminescence traces (rate vs. time) were transformed to reaction progress curves corresponding to cumulative luminescence in time. The transformed kinetic data (product vs. time) were fitted globally with the KinTek Explorer (KinTek Corporation, USA). The software allows for the input of a given kinetic model via a simple text description, and the program then derives the differential equations needed for numerical integration automatically.
Numerical integration of rate equations searching a set of kinetic parameters that produce a minimum χ^2 value was performed using the Bulirsch-Stoer algorithm with adaptive step size, and nonlinear regression to fit data was based on the Levenberg-Marquardt method. To account for fluctuations in experimental data, enzyme or substrate concentrations were slightly adjusted (5%) to derive best fits. Residuals were normalized by sigma values for each data point. The standard error was calculated from the covariance matrix during nonlinear regression. In addition to standard error values, more rigorous analysis of the variation of the kinetic parameters was accomplished by confidence contour analysis by using FitSpace Explorer (KinTek Corporation, USA). In these analyses, the lower and upper limits for each parameter were derived from the confidence contour obtained from setting χ^2 threshold at 0.9. The scaling factor, relating luminescence signal to product concentration, was applied as one of the fitted parameters, well constrained by end-point levels of kinetic traces recorded at particular substrate concentrations. Depletion of the available substrate after the reaction was ensured by repeated injection of the fresh enzyme.
The steady-state model, described by Equation (4), was used to obtain the values of turnover number kcat, Michaelis constant Km, and equilibrium dissociation constant for enzyme-product complex Kp. A conservative estimate for diffusion-limited substrate and product binding k1 and k3 (100 μM^−1·s^−1) was used as a fixed value to mimic the rapid equilibrium assumption. An alternative form of the model, described by Equation (5), was used to obtain estimates of kcat/Km directly by setting k−1=0.

[9] = from Loening et al. (2006); cited from earlier work

k−1 ([1]; pH 7.5) | k+1 [1] | Bioluminescence activity lower than the modern luciferase enzyme [3] | k+2 ([1]; pH 7.5) | k−2 ([1]; pH 7.5) | Kd ([5]; anaerobic, pH 7.5, 30° C., read-out: Dissociation constant Kd, Coelenterazine substrate) | Kd ratio substrate/product ([5]; ratio) | Kd [7] | Kd ([8]; 100 mM phosphate buffer pH 7.5, 37° C., read-out: Kp (equilibrium dissociation constant for enzyme-product complex)) | Molecule | Tm [2] | Tonset [2] | Apparent melting temperature higher than RLuc ([2]; difference to RLuc) | Half-life (t1/2) [4] | Bioluminescence activity improvement [6] | kcat ([8]; 100 mM phosphate buffer pH 7.5, 37° C.) | Glow-type effectivity ([8]; kcat/Km divided by Km/Kp) | kcat [9]
0.118 ± 0.071 s⁻¹ | 3000 ± 3000 M⁻¹ s⁻¹ | > 100,000 fold |  |  |  |  |  |  | AncHLD-RLuc: Reconstructed most-likelihood ancestral protein of Renilla reniformis luciferase and haloalkane dehalogenases (protein, Ancestral protein of Renilla reniformis luciferase) MVSASQRTTSTATGDEWWAKCKQVDVLDSEMSYYDSDPGKHKNTVIFLHGNPTSSYLWRNVIPHVEPLARCLAPDLIGMGKSGKLPNHSYRFVDHYRYLSAWFDSVNLPEKVTIVCHDWGSGLGFHWCNEHRDRVKGIVHMESVVSPLKGWESFPETARDIFQALRSEAGEEMVLKKNFFIERLLPSSIMRKLSEEEMDAYREPFVEPGESRRPTLTWPREIPIKGDGPEDVIEIVKSYNKWLSTSKDIPKLFINADPGFFSNAIKKVTKNWPNQKTVTVKGLHFLQEDSPEEIGEAIADFLNELTK | 64.9 ± 0.1 °C | 57.4 ± 0.1 °C | 21.2 °C |  |  |  |  | 
305 ± 5 s⁻¹ | 2.35e+06 ± 40000 M⁻¹ s⁻¹ |  | 26.6 ± 1.1 s⁻¹ | 23.4 ± 0.2 s⁻¹ | 37 ± 15 µM | 1.7 ± 0.7 | 22 ± 2 µM | 1.18 ± 0.05 µM | RLuc8: Eight-point mutant of RLuc (A55T, C124A, S130A, K136R, A143M, M185V, M253L, and S287L) (protein, RLuc8) MTSKVYDPEQRKRMITGPQWWARCKQMNVLDSFINYYDSEKHAENAVIFLHGNATSSYLWRHVVPHIEPVARCIIPDLIGMGKSGKSGNGSYRLLDHYKYLTAWFELLNLPKKIIFVGHDWGAALAFHYAYEHQDRIKAIVHMESVVDVIESWDEWPDIEEDIALIKSEEGEKMVLENNFFVETVLPSKIMRKLEPEEFAAYLEPFKEKGEVRRPTLSWPREIPLVKGGKPDVVQIVRNYNAYLRASDDLPKLFIESDPGFFSNAIVEGAKKFPNTEFVKVKGLHFLQEDAPDEMGKYIKSFVERVLKNEQ | 45.0 ± 0.1 °C | 35.2 ± 0.1 °C |  | 6.36 ± 0.06 s | 4.3 fold | 4.7 ± 0.1 s⁻¹ | 2.3 ± 0.2 | 
 |  |  |  |  |  |  |  |  | RLuc: Luciferase isolated from the sea pansy Renilla reniformis (protein, RLuc) MTSKVYDPEQRKRMITGPQWWARCKQMNVLDSFINYYDSEKHAENAVIFLHGNAASSYLWRHVVPHIEPVARCIIPDLIGMGKSGKSGNGSYRLLDHYKYLTAWFELLNLPKKIIFVGHDWGACLAFHYSYEHQDKIKAIVHAESVVDVIESWDEWPDIEEDIALIKSEEGEKMVLENNFFVETMLPSKIMRKLEPEEFAAYLEPFKEKGEVRRPTLSWPREIPLVKGGKPDVVQIVRNYNAYLRASDDLPKMFIESDPGFFSNAIVEGAKKFPNTEFVKVKGLHFSQEDAPDEMGKYIKSFVERVLKNEQ | 43.7 ± 0.1 °C | 36.3 ± 0.2 °C |  | 16.4 ± 0.06 s |  |  |  | 3.9 ± 0.4 s⁻¹
